Laboratory results reported in PMC6901440.

Key:
Bcl-2 = Bcl-2 (UniProt P10415); experiment: anti-Flag co-IP, Bcl-2 blot; details: reference: wild-type MLKL with RIP3; sites T357,S358
[1] = target: Flag-MLKL T357D/S358E phosphorylation mimic (human) (UniProt Q8NB16); experiment: immunoblot of oligomers in cytosol and membrane fractions; HEK-293T cells transfected with Flag-MLKL constructs, with or without RIP3, Bcl-2 or Bcl-2 G145A; Triton X-114 detergent phase separation; oligomers seen by immunoblot (gel conditions not told)
Chain of Flag-MLKL T357D/S358E phosphorylation mimic (human) (Q8NB16 whole entry T357D/S358E): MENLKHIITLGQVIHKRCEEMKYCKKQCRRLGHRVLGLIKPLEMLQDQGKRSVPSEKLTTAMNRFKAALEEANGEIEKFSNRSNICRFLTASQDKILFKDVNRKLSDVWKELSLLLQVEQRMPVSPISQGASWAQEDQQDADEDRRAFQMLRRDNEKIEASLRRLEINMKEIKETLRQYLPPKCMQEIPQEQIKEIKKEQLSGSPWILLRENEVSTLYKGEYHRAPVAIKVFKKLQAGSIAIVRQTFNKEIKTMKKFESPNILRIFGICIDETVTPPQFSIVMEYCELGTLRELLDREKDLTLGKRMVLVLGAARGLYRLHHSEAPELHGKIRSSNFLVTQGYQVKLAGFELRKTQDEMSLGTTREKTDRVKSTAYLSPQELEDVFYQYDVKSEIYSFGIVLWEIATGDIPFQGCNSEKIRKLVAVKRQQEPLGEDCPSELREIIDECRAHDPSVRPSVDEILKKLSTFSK

Chain of Bcl-2 (transfected, HEK-293T) (P10415 whole entry): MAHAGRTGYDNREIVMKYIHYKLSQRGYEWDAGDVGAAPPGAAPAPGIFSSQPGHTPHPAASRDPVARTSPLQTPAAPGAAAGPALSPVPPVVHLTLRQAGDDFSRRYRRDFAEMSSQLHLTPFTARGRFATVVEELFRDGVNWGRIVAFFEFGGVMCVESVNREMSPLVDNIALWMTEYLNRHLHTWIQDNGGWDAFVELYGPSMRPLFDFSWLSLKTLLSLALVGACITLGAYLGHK

binding against the reference (Bcl-2) | percent decrease of MLKL oligomerization [1] [%] | Substance
weaker |  | MLKL (from UniProt Q8NB16) T357A/S358A with RIP3
 | 30 | Bcl-2 (transfected, HEK-293T) (from UniProt P10415 1-239)
